Measured values reported in publication PMC10397247.
Read-outs that look alike come from different tables or passages of the source.

What was measured:
Core_IIII-es_KEKK = biological target: T1, Core_IIII-es_KEKK; test: two-hybrid library CCmax; conditions: mean of both orientations;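 also: natural log of median RNA to DNA barcode read ratio; higher means stronger binding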
T1 chain: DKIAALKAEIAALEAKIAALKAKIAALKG

4H906-bA = biological target: T2, 4H906-bA; test: two-hybrid library CCNG1;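 also: natural log of median RNA to DNA barcode read ratio; higher means stronger binding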
T2 chain: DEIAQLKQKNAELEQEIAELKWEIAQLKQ

4H3462-bA = biological target: T3, 4H3462-bA; test: two-hybrid library CCNG1;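 also: natural log of median RNA to DNA barcode read ratio; higher means stronger binding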
T3 chain: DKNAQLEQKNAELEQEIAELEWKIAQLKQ

4H348-bA = biological target: T4, 4H348-bA; test: two-hybrid library CCNG1;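 also: natural log of median RNA to DNA barcode read ratio; higher means stronger binding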
T4 chain: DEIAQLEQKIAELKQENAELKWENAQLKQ

4H3613-bA = biological target: T5, 4H3613-bA; test: two-hybrid library CCNG1;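 also: natural log of median RNA to DNA barcode read ratio; higher means stronger binding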
T5 chain: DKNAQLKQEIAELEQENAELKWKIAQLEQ

4H626-bA = biological target: T6, 4H626-bA; test: two-hybrid library CCNG1;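 also: natural log of median RNA to DNA barcode read ratio; higher means stronger binding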
T6 chain: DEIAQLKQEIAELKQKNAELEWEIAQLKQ

4H3497-bA = biological target: T7, 4H3497-bA; test: two-hybrid library CCNG1
T7 chain: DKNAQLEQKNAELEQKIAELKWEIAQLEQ

4H3926-bA = biological target: T8, 4H3926-bA; test: two-hybrid library CCNG1
T8 chain: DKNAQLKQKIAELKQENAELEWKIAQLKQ

4H3175-bA = biological target: T9, 4H3175-bA; test: two-hybrid library CCNG1
T9 chain: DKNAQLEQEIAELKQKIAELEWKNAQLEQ

P2bHq = biological target: T10, P2bHq; test: two-hybrid library CCNG1
T10 chain: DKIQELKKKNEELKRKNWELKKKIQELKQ

4H3631-bA = biological target: T11, 4H3631-bA; test: two-hybrid library CCNG1
T11 chain: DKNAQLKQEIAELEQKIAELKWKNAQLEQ

4H3298-bA = biological target: T12, 4H3298-bA; test: two-hybrid library CCNG1
T12 chain: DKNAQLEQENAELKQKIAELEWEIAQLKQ

4H591-bA = biological target: T13, 4H591-bA; test: two-hybrid library CCNG1
T13 chain: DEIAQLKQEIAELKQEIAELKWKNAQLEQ

4H3162-bA = biological target: T14, 4H3162-bA; test: two-hybrid library CCNG1
T14 chain: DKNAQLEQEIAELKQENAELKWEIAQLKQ

P10A-bS = biological target: T15, P10A-bS; test: two-hybrid library CCNG1
T15 chain: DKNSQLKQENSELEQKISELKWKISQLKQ

4H3628-bA = biological target: T16, 4H3628-bA; test: two-hybrid library CCNG1
T16 chain: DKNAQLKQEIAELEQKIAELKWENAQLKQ

4H3277-bA = biological target: T17, 4H3277-bA; test: two-hybrid library CCNG1
T17 chain: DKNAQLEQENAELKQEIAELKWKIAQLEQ

4H968-bA = biological target: T18, 4H968-bA; test: two-hybrid library CCNG1
T18 chain: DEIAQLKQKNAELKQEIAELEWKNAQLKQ

4H457-bA = biological target: T19, 4H457-bA; test: two-hybrid library CCNG1
T19 chain: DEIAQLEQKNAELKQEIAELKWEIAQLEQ

4H1710-bA = biological target: T20, 4H1710-bA; test: two-hybrid library CCNG1
T20 chain: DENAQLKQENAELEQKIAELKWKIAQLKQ

4H575-bA = biological target: T21, 4H575-bA; test: two-hybrid library CCNG1
T21 chain: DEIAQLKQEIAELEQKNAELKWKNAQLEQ

4H346-bA = biological target: T22, 4H346-bA; test: two-hybrid library CCNG1
T22 chain: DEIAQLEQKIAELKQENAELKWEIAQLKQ

4H170-bA = biological target: T23, 4H170-bA; test: two-hybrid library CCNG1
T23 chain: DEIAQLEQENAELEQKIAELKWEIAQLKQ

O6 = biological target: T24, O6; test: two-hybrid library CCNG1
T24 chain: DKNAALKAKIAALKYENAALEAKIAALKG

P8SHb = biological target: T25, P8SHb; test: two-hybrid library CCNG1
T25 chain: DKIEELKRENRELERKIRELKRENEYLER

4H112-bA = biological target: T26, 4H112-bA; test: two-hybrid library CCNG1
T26 chain: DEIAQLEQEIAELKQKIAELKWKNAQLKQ

4H2673-bA = biological target: T27, 4H2673-bA; test: two-hybrid library CCNG1
T27 chain: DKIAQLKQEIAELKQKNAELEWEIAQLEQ

4H1158-bA = biological target: T28, 4H1158-bA; test: two-hybrid library CCNG1
T28 chain: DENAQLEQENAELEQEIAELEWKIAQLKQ

4H2627-bA = biological target: T29, 4H2627-bA; test: two-hybrid library CCNG1
T29 chain: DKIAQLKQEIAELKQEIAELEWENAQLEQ

4H1373-bA = biological target: T30, 4H1373-bA; test: two-hybrid library CCNG1
T30 chain: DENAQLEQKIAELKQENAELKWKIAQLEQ

4H855-bA = biological target: T31, 4H855-bA; test: two-hybrid library CCNG1
T31 chain: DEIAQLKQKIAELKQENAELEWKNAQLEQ

4H1831-bA = biological target: T32, 4H1831-bA; test: two-hybrid library CCNG1
T32 chain: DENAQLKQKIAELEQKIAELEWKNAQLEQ

4H1899-bA = biological target: T33, 4H1899-bA; test: two-hybrid library CCNG1
T33 chain: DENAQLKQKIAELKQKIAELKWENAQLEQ

4H953-bA = biological target: T34, 4H953-bA; test: two-hybrid library CCNG1
T34 chain: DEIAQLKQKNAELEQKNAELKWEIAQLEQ

4H4073-bA = biological target: T35, 4H4073-bA; test: two-hybrid library CCNG1
T35 chain: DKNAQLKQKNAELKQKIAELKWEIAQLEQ

4H3112-bA = biological target: T36, 4H3112-bA; test: two-hybrid library CCNG1
T36 chain: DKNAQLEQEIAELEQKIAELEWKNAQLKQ

4H780-bA = biological target: T37, 4H780-bA; test: two-hybrid library CCNG1
T37 chain: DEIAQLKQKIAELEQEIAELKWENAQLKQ

4H683-bA = biological target: T38, 4H683-bA; test: two-hybrid library CCNG1
T38 chain: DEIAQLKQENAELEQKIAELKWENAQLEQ

4H1985-bA = biological target: T39, 4H1985-bA; test: two-hybrid library CCNG1
T39 chain: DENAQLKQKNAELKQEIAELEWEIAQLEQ

4H754-bA = biological target: T40, 4H754-bA; test: two-hybrid library CCNG1
T40 chain: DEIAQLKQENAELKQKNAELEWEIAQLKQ

4H3427-bA = biological target: T41, 4H3427-bA; test: two-hybrid library CCNG1
T41 chain: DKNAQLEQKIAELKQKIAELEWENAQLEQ

4H1081-bA = biological target: T42, 4H1081-bA; test: two-hybrid library CCNG1; conditions: mean of both orientations
T42 chain: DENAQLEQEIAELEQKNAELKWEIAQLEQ

4H1348-bA = biological target: T43, 4H1348-bA; test: two-hybrid library CCNG1
T43 chain: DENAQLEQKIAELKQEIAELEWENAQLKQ

4H3010-bA = biological target: T44, 4H3010-bA; test: two-hybrid library CCNG1
T44 chain: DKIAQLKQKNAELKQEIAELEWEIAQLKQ

4H2702-bA = biological target: T45, 4H2702-bA; test: two-hybrid library CCNG1
T45 chain: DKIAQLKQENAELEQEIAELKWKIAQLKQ

4H1544-bA = biological target: T46, 4H1544-bA; test: two-hybrid library CCNG1
T46 chain: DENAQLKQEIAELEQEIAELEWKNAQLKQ

4H2586-bA = biological target: T47, 4H2586-bA; test: two-hybrid library CCNG1
T47 chain: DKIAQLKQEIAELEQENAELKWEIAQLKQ

4H797-bA = biological target: T48, 4H797-bA; test: two-hybrid library CCNG1
T48 chain: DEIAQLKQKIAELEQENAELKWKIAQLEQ

4H918-bA = biological target: T49, 4H918-bA; test: two-hybrid library CCNG1
T49 chain: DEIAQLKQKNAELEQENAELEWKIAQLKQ

4H118-bA = biological target: T50, 4H118-bA; test: two-hybrid library CCNG1
T50 chain: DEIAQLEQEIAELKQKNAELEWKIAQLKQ

B1: Core_IIII-es_EKEE (peptide)
chain: DEIAALEAKIAALKAEIAALEAEIAALEG
interaction score (Core_IIII-es_KEKK): 1.78

B2: 4H3162-bA (peptide)
chain: DKNAQLEQEIAELKQENAELKWEIAQLKQ
interaction score (4H906-bA): -1.01
interaction score (4H3462-bA): -0.481
interaction score (4H348-bA): -2.08
interaction score (4H3613-bA): 0.452
interaction score (4H626-bA): -0.331
interaction score (4H3497-bA): -0.885
interaction score (4H3926-bA): 1.8
interaction score (4H3175-bA): -0.314
interaction score (P2bHq): -0.679
interaction score (4H3631-bA): -1.48
interaction score (4H3298-bA): -0.43
interaction score (4H591-bA): -1.2
interaction score (4H3162-bA): 1.11
interaction score (P10A-bS): -0.255
interaction score (4H3628-bA): -0.274
interaction score (4H3277-bA): -0.654

B3: 4H1081-bA (peptide)
chain: DENAQLEQEIAELEQKNAELKWEIAQLEQ
interaction score (4H906-bA): -0.875
interaction score (4H968-bA): -1.8
interaction score (4H457-bA): -0.799
interaction score (4H1710-bA): -1.02
interaction score (4H575-bA): -1.21
interaction score (4H346-bA): -0.753
interaction score (4H170-bA): -0.98
interaction score (4H3462-bA): -0.859
interaction score (O6): 1.04
interaction score (P8SHb): -1.25
interaction score (4H112-bA): -0.18
interaction score (4H2673-bA): -0.717
interaction score (4H1158-bA): -1.28
interaction score (4H2627-bA): -0.693
interaction score (4H1373-bA): -0.306
interaction score (4H3613-bA): -0.495
interaction score (4H626-bA): -0.689
interaction score (4H3497-bA): -1.1
interaction score (4H3926-bA; mean of both orientations): 2.57
interaction score (4H855-bA): -0.154
interaction score (4H1831-bA): -0.839
interaction score (4H1899-bA): -0.763
interaction score (4H953-bA): -1.23
interaction score (4H4073-bA): -0.497
interaction score (4H3112-bA): -0.897
interaction score (4H3175-bA): -1.47
interaction score (4H780-bA): -0.865
interaction score (4H683-bA): -0.217
interaction score (4H1985-bA): -0.96
interaction score (4H754-bA): -0.461
interaction score (4H3427-bA): -0.645
interaction score (4H1081-bA): -1.09
interaction score (4H1348-bA): -0.834
interaction score (4H3298-bA): -0.916
interaction score (4H3010-bA): -0.178
interaction score (4H591-bA): -0.855
interaction score (4H2702-bA): 0.457
interaction score (4H1544-bA): -0.272
interaction score (4H2586-bA): -1
interaction score (4H797-bA): -1.17
interaction score (4H3162-bA): -0.581
interaction score (4H918-bA): -0.671
interaction score (4H3628-bA): -1.07
interaction score (4H3277-bA): -0.575
interaction score (4H118-bA): -0.618
